Where no end group is shown, it is not given here.
Key:
CD28 [1] = target: T1, CD28 (Homo sapiens, UniProt P10747); test: Flow binding to Jurkat/IL2 reporter cells (CD28); parameters: host or cells: Jurkat cells expressing an IL-2-luciferase reporter; conditions: for CD28 Fold change to WT CD80: MFI at 33.3 nM relative to CD80 WT IgV-Fc
Description: (§1) Binding of selected immunomodulatory fusion proteins to cognate binding partners was assessed. […] Cells were sorted in a Bio-Rad S3 Cell Sorter (Bio-Rad Corp., USA) to >98% purity. Jurkat/IL2 reporter cells, which endogenously express CD28, were used to detect binding to CD28.
(§2) For staining and analysis by flow cytometry, 100,000 cells of appropriate transfected cells were plated in 96-well round bottom plates. Cells were spun down and resuspended in staining buffer (phosphate buffered saline (PBS), 1% bovine serum albumin (BSA), and 0.1% sodium azide) for 20 minutes to block non-specific binding. […] Primary staining was performed on ice for 45 minutes, before washing cells in staining buffer twice. Phycoerythrin (PE)-conjugated anti-human Fc (Jackson ImmunoResearch, USA) was diluted 1:150, added to cells and incubated another 30 minutes on ice. Cells were then washed twice with 150 μL/well stain buffer, fixed in 2% formaldehyde/PBS, and analyzed on Intellicyt flow cytometer (Intellicyt Corp., USA). PE Mean Fluorescence Intensity (MFI) was calculated for each cell type with FlowJo Version 10 software (FlowJo LLC, USA).
(§3) Binding assays were carried out to assess the specificity and affinity of multivalent proteins to cell-expressed CTLA-4, CD28, and PD-L1 counter structures.
(§4) The EC50 for binding also was determined.

huPD-L1 = huPD-L1 (Homo sapiens, UniProt Q9NZQ7); test: Flow binding to CHO cells stably expressing PD-L1; parameters: huCTLA4 and huPD-L1, full-length mammalian surface expression constructs were generated; expressed in transfected cells; host or cells: CHO cells, lentiviral transduction, sorted to >98% purity; conditions: for PD-L1 MFI at 33.3 nM: CHO cells stably expressing PD-L1; for PD-L1 Fold change to WT CD80: MFI at 33.3 nM relative to CD80 WT IgV-Fc
Description: as §1, §2, §3, §4

huCTLA4 = huCTLA4 (Homo sapiens, UniProt P16410); test: Flow binding to CHO cells stably expressing CTLA4; parameters: huCTLA4 and huPD-L1, full-length mammalian surface expression constructs were generated; expressed in transfected cells; host or cells: CHO cells, lentiviral transduction, sorted to >98% purity; conditions: for CTLA4 MFI at 33.3 nM: CHO cells stably expressing CTLA4
Description: as §1, §2, §3, §4

CD28 [2] = target: T1, CD28; test: Jurkat/IL2 + CHO/OKT3 +/- PD-L1 reporter assay: PD-L1-dependent CD28 costimulation; format: cell-based; parameters: host or cells: Jurkat cells expressing an IL-2-luciferase reporter
Description: Jurkat cells were then plated at 50 μL/well for a total of 100,000 cells per well.
To each well, 25 μL of test protein was added to the Jurkat cells. […] The Jurkat cells with test or control proteins were incubated for 15 minutes at room temperature. CHO-derived artificial antigen presenting cells (aAPC) displaying transduced cell surface anti-CD3 single chain Fv (OKT3) (i.e., no PD-L1), or OKT3 and PD-L1 (i.e., +PD-L1), were brought to 0.8×10^6 cells/mL, and 25 μL of cells were added to each well, bringing the final volume of each well to 100 μL. […] Jurkat cells and CHO cells were incubated for 5 hours at 37 degrees Celsius in a humidified 5% CO2 incubation chamber. Plates were then removed from the incubator and acclimated to room temperature for 15 minutes. 100 μL of a cell lysis and luciferase substrate solution (BioGlo luciferase reagent, Promega) were added to each well and the plates were incubated on an orbital shaker for 10 minutes. Luminescence was measured with a 1 second per well integration time using a BioTek Cytation luminometer, and a relative luminescence value (RLU) was determined for each test sample.

[3] = Table E20, Jurkats (CD28), 33.3 nM
[4] = Table E20, ratio of MFI at 33.3 nM
[5] = Table E20, MFI at 33.3 nM relative to CD80 WT IgV-Fc
[6] = Table E22, Jurkat/IL2 + CHO/OKT3/PD-L1, 5.0 nM
[7] = Table E22, Jurkat/IL2 + CHO/OKT3/PD-L1, CD80 Conc 5.0 nM
[8] = Table E23, CD80 IgV-Fc (inert) at 33.3 nM, Jurkat (CD28)
[9] = Table E23, CD80 IgV-Fc (inert) at 33.3 nM
[10] = Table E23, ratio of MFI at 33.3 nM
[11] = Table E23, MFI at 33.3 nM relative to CD80 WT IgV-Fc
[12] = Table E24, Jurkat/IL2 + CHO/OKT3/PD-L1, 5.0 nM
[13] = Table E14, 33.3 nM, listed as CD80 WT IgV-Fc = 1.0
[14] = Table E15, CHO/OKT3/PD-L1, 5.0 nM

Chain of huCTLA4 (P16410 36-223): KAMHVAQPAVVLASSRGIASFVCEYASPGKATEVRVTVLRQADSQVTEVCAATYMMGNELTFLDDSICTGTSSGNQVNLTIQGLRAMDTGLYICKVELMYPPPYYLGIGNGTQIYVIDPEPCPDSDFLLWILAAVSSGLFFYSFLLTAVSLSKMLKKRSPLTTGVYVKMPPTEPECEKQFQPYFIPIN
Chain of huPD-L1 (Q9NZQ7 19-290): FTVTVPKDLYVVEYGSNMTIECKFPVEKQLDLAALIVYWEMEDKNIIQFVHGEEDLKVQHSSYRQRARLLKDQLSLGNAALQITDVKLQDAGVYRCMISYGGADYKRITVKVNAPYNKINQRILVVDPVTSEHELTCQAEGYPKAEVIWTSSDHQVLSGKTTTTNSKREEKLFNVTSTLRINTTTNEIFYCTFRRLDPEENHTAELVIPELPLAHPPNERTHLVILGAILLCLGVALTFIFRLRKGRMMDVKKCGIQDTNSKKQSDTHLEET

CD28 MFI at 33.3 nM (CD28 [1]; [3]) | CD28 Fold change to WT CD80 (CD28 [1]; Table E20) [fold] | PD-L1 MFI at 33.3 nM (huPD-L1; Table E20, 33.3 nM) | PD-L1 Fold change to WT CD80 (huPD-L1; Table E20) [fold] | Ratio of PDL1:CD28 (huPD-L1; [4]) | CTLA4 MFI at 33.3 nM (huCTLA4; Table E20, 33.3 nM) | CTLA4 Fold change to WT CD80 (huCTLA4; [5]) [fold] | Fold Increase over WT CD80-IgV-Fe (CD28 [2]; [6]) [fold] | Relative Luciferase Units (RLU), CD80 Conc 5.0 nM (CD28 [2]; [7]) [RLU] | Substance | further results
1379 | 31.4 | 12698 | 291.2 | 9.2 | 19736 | 14.5 | 2.37 | 925 | H18Y/A26E/E35D/M47L/D90G | –
2675 | 60.9 | 25217 | 578.4 | 9.4 | 24855 | 18.3 | 2.29 | 893 | H18Y/A26E/E35D/M47L/V68M/D90G | –
1757 | 40.0 | 28683 | 657.9 | 16.3 | 23386 | 17.2 | 2.41 | 940 | H18Y/A26E/E35D/V68M/A71G/D90G | –
2584 | 58.9 | 23206 | 532.2 | 9.0 | 19331 | 14.2 | 2.69 | 1049 | H18Y/A26E/E35D/V68M/D90G | –
2556 | 58.2 | 31716 | 727.4 | 12.4 | 121 | 0.1 | 2.19 | 853 | H18Y/A26E/M47L/V68M/A71G/D90G | –

The next lines start with the substance.

Substance | CD28 MFI at 33.3 nM (CD28 [1]; [3]) | CD28 Fold change to WT CD80 (CD28 [1]; Table E20) [fold] | PD-L1 MFI at 33.3 nM (huPD-L1; Table E20, 33.3 nM) | PD-L1 Fold change to WT CD80 (huPD-L1; Table E20) [fold] | Ratio of PDL1:CD28 (huPD-L1; [4]) | CTLA4 MFI at 33.3 nM (huCTLA4; Table E20, 33.3 nM) | CTLA4 Fold change to WT CD80 (huCTLA4; [5]) [fold] | Fold Increase over WT CD80-IgV-Fe (CD28 [2]; [6]) [fold] | Relative Luciferase Units (RLU), CD80 Conc 5.0 nM (CD28 [2]; [7]) [RLU] | further results
H18Y/A26E/E35D/A71G/D90G | 1075 | 24.5 | 14822 | 340.0 | 13.8 | −100 | −0.1 | 2.45 | 956 | –
H18Y/A26E/E35D/M47L/A71G | 379 | 8.6 | 16887 | 387.3 | 44.6 | 19353 | 14.2 | 2.42 | 944 | –
H18Y/A26E/E35D/V68M/A71G | 394 | 9.0 | 27476 | 630.2 | 69.7 | 19394 | 14.3 | 2.46 | 961 | –
H18Y/A26E/M47L/V68M/D90G | 32 | 0.7 | 23594 | 541.1 | 737.3 | 28649 | 21.1 | 2.76 | 1075 | –
H18Y/A26E/V68M/A71G/D90G | 2683 | 61.1 | 27872 | 639.3 | 10.4 | 18305 | 13.5 | 2.50 | 974 | –
H18Y/A26Q/E35D/M47T/V68M/A71G/D90G | – | – | – | – | – | – | – | – | – | CD28 MFI at 33.3 nM (CD28 [1]; [8]): 6733; CD28 Fold change to WT CD80 (CD28 [1]; Table E23): 66.0; PD-L1 MFI at 33.3 nM (huPD-L1; [9]): 24450; PD-L1 Fold change to WT CD80 (huPD-L1; Table E23): 148.2; Ratio of PDL1:CD28 (huPD-L1; [10]): 3.6; CTLA4 MFI at 33.3 nM (huCTLA4; [9]): 16652; CTLA4 Fold change to WT CD80 (huCTLA4; [11]): 12.0; Fold Increase over WT CD80-IgV-Fe (CD28 [2]; [12]): 5.8; Relative Luciferase Units (RLU), CD80 Conc 5.0 nM (CD28 [2]; [12]): 994 RLU
H18Y/E35D/M47L/V68M/A71G | 928 | 21.1 | 30377 | 696.7 | 32.7 | 23667 | 17.4 | 2.19 | 853 | –
H18Y/E35D/M47V/V68M/A71G/D90G | – | – | – | – | – | – | – | – | – | CD28 MFI at 33.3 nM (CD28 [1]; [8]): 6792; CD28 Fold change to WT CD80 (CD28 [1]; Table E23): 66.6; PD-L1 MFI at 33.3 nM (huPD-L1; [9]): 52151; PD-L1 Fold change to WT CD80 (huPD-L1; Table E23): 316.1; Ratio of PDL1:CD28 (huPD-L1; [10]): 7.7; CTLA4 MFI at 33.3 nM (huCTLA4; [9]): 17165; CTLA4 Fold change to WT CD80 (huCTLA4; [11]): 12.4; Fold Increase over WT CD80-IgV-Fe (CD28 [2]; [12]): 4.8; Relative Luciferase Units (RLU), CD80 Conc 5.0 nM (CD28 [2]; [12]): 825 RLU
deltaE10-A98: variant CD80 IgV-Fc, IgV SEQ ID NO:545 (VIHVTKEVKEVTLSVKAD; not fully specified) | – | – | – | – | – | – | – | – | – | CD28 Fold change to WT (CD28 [1]; [13]): 0.4; CD28 MFI at 33.3 nM (CD28 [1]; Table E14, Jurkats (CD28), 33.3 nM): 15; PD-L1 Fold change to WT (huPD-L1; [13]): 0.5; PD-L1 MFI at 33.3 nM (huPD-L1; Table E14, 33.3 nM): 45; Ratio of PDL1:CD28 (huPD-L1; Table E14, MFI at 33.3 nM): 3; CTLA4 Fold change to WT CD80 (huCTLA4; [13]): 0.1; CTLA4 MFI at 33.3 nM (huCTLA4; Table E14, 33.3 nM): 125; Fold Increase over WT CD80-IgV-Fe (CD28 [2]; [14]): 0.3; Relative Luciferase Units (RLU), CD80-Fe Cone 5.0 nM (CD28 [2]; [14]): 137 RLU
